How the values were obtained:
[1] = biological target: T1, GST-tagged C-terminal half of ABAR protein (aa 681-1381) (Arabidopsis thaliana, UniProt Q9FNB0 681-1381); assay: pull-down; GST-tagged ABAR (aa 681-1381, 1 ug) or GST alone added to E. coli lysate expressing His-tagged OST1; glutathione-sepharose 4B beads, 4 °C, 12 h; 10 mM Tris-HCl pH 7.5, 200 mM NaCl, 10% glycerol; blot with anti-His; details: one partner purified
T1 construct: Cloned into pGEX-4T-1; also called GST-ABAR; recombinant truncated ABAR protein; source: E. coli BL21(DE3), purified (Sepharose 4B)
T1 sequence (looked up): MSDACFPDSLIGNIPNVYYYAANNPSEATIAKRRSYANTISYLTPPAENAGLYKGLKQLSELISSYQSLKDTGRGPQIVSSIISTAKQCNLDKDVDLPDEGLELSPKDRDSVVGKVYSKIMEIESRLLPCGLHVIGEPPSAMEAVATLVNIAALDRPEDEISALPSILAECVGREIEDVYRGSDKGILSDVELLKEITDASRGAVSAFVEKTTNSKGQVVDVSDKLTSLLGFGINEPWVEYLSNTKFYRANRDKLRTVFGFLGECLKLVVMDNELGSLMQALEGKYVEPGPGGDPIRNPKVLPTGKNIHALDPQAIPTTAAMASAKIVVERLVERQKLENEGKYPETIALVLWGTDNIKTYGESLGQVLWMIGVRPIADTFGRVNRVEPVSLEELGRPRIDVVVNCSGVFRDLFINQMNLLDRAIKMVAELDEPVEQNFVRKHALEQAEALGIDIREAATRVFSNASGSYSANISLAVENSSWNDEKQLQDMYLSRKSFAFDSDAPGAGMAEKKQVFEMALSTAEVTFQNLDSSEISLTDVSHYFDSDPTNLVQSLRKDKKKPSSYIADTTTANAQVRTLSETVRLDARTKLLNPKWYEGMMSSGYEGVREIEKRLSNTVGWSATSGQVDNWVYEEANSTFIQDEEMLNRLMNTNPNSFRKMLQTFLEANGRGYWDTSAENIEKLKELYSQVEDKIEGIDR

[2] = biological target: T2, GST-tagged C-terminal half of ABAR protein (aa 681-1381) (Arabidopsis thaliana, UniProt Q9FNB0 681-1381); assay: SPR
T2 chain: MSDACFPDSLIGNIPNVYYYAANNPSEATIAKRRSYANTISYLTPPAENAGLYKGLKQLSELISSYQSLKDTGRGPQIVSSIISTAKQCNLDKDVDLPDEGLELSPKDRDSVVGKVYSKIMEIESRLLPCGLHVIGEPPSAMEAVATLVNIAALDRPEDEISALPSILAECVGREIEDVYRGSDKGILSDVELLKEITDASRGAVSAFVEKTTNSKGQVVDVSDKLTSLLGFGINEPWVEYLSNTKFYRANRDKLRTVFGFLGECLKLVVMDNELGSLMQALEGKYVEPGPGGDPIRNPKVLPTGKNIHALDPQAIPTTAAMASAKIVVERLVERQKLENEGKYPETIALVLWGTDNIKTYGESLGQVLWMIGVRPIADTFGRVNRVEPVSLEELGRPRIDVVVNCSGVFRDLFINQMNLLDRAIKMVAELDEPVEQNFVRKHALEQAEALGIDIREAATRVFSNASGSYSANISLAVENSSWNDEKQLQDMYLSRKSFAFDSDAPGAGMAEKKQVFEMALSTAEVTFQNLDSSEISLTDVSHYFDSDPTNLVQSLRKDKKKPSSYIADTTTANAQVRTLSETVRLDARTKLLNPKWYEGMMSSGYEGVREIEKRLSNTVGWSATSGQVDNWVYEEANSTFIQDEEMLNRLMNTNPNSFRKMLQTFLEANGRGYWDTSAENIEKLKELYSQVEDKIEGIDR

B1: His-tagged OST1 protein (recombinant, full-length ORF) (enzyme, Arabidopsis thaliana, UniProt Q940H6 1-362, looked up)
chain: MDRPAVSGPMDLPIMHDSDRYELVKDIGSGNFGVARLMRDKQSNELVAVKYIERGEKIDENVKREIINHRSLRHPNIVRFKEVILTPTHLAIVMEYASGGELFERICNAGRFSEDEARFFFQQLISGVSYCHAMQVCHRDLKLENTLLDGSPAPRLKICDFGYSKSSVLHSQPKSTVGTPAYIAPEVLLKKEYDGKVADVWSCGVTLYVMLVGAYPFEDPEEPKNFRKTIHRILNVQYAIPDYVHISPECRHLISRIFVADPAKRISIPEIRNHEWFLKNLPADLMNDNTMTTQFDESDQPGQSIEEIMQIIAEATVPPAGTQNLNHYLTGSLDIDDDMEEDLESDLDDLDIDSSGEIVYAM
notes: SNF1-related protein kinase SnRK2.6/OST1/SRK2E, Arabidopsis thaliana, At4g33950, full-length ORF; Cloned into pET-48b(+); also called recombinant OST1; SnRK2.6; source: E. coli BL21(DE3): in cell lysate (pull-down); purified (Ni-NTA agarose)
- binding result [1]: binds
- Kd [2]: ~71.4 nM

— publication PMC4588886, “A link between magnesium-chelatase H subunit and sucrose nonfermenting 1 (SNF1)-related protein kinase SnRK2.6/OST1 in Arabidopsis guard cell signalling in response to abscisic acid” (Journal of Experimental Botany, 2015)
